Substrate: CC(C)C[C@H](NC(=O)[C@@H](NC(=O)[C@H](CCCNC(=N)N)NC(=O)[C@H](C)NC(=O)[C@@H](N)CCCNC(=N)N)[C@@H](C)O)C(=O)N[C@@H](CO)C(=O)N[C@@H](Cc1ccccc1)C(=O)N[C@@H](C)C(=O)N[C@@H](CCC(=O)O)C(=O)N1CCC[C@H]1C(=O)NCC(=O)O
Experiment: Kinetic parameters for peptide phosphorylation, radioactive filter-binding assay
Format: biochemical, human
Conditions: other: MAPKAP-K3; Standard Substrate = …; 30.0 °C
Source text: Apart from the AMP-activated protein kinase (AMPK, a gift from Drs S. Hawley and D. G. Hardie), cGMP-dependent protein kinase (PKG, a generous gift from Drs Susan Lohmann and Ulrich Walter, University of Wurzburg, Germany) and the catalytic subunit of cyclic AMP-dependent protein kinase (PKA, a gift from Dr C. Smythe), which were isolated from rat liver, bovine lung and bovine heart, respectively, all other protein kinases were expressed as either GST-fusion or His-tagged proteins (by a person, a person, Dr A. Paterson or a person, in this Division). The expressed proteins all corresponded to the human sequences apart from the rat Rho-dependent protein kinase (ROCK-II) and rat mitogen-activated protein kinase (MAPK) activated kinase-1a (MAPKAP-K1a, also called RSK). […]
All protein kinase assays were linear with respect to time. […] All papers were subsequently washed a further three times in phosphoric acid, once in acetone, then dried and counted for radioactivity. […] The plates were then washed six times (five min per wash) in PBS, 0.1% Tween 20 and binding of the phospho-specific antibody detected by incubating the plates with peroxidase-conjugated anti-sheep antibodies (Pierce). […] Signals were quantitated on LAS-1000IR software (FujiFilm). […]

B1: MAPKAP-K3 (Homo sapiens) (protein)
chain: MDGETAEEQGGPVPPPVAPGGPGLGGAPGGRREPKKYAVTDDYQLSKQVLGLGVNGKVLECFHRRTGQKCALKLLYDSPKARQEVDHHWQASGGPHIVCILDVYENMHHGKRCLLIIMECMEGGELFSRIQERGDQAFTEREAAEIMRDIGTAIQFLHSHNIAHRDVKPENLLYTSKEKDAVLKLTDFGFAKETTQNALQTPCYTPYYVAPEVLGPEKYDKSCDMWSLGVIMYILLCGFPPFYSNTGQAISPGMKRRIRLGQYGFPNPEWSEVSEDAKQLIRLLLKTDPTERLTITQFMNHPWINQSMVVPQTPLHTARVLQEDKDHWDEVKEEMTSALATMRVDYDQVKIKDLKTSNNRLLNKRRKKQAGSSSASQGCNNQ
notes: GST; made in house; host or cells: E. coli
  Km: 30 µM
